The results in this text go back to patent US20160053025A1 (SAMSUNG ELECTRONICS, published 2016).

Assay [1] addresses T1, Ang2 protein (R&D systems) (human, UniProt O15123 19-496).
T1 sequence: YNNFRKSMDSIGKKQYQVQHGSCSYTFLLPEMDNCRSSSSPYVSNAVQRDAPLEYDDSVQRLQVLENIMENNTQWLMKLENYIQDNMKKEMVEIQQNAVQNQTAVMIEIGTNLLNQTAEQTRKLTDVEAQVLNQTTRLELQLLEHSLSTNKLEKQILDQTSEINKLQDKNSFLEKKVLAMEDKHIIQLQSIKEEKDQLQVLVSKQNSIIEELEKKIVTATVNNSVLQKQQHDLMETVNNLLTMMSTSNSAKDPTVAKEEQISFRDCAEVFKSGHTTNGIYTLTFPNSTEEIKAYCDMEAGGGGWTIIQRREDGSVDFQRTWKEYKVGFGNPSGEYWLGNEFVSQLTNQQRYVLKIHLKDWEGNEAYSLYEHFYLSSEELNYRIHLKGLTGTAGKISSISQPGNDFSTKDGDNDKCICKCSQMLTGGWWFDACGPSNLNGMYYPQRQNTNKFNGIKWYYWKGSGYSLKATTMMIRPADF
Description: cell-based or functional assay.

The target of assay [2] is T2, hTie2-Fc (R&D Systems) (human, UniProt Q02763 23-745).
T2 construct: Bought fusion protein; also called hTie-2/Fc fusion protein; not shown: Fc of human IgG1
Description: Complex ELISA: plate coated with Tie2-Fc (4 ug/ml), 10D6 2 ug/ml without Ang2, anti-mouse IgG-HRP, OD450. The procedure: A 96-well MaxiSorp™ flat-bottom plate (Nunc) was coated with 4 μg/ml of Tie2-Fc (R&D systems) or BSA (Sigma). Then, the plate was washed five times with 0.05% (v/v) Tween-20-containing PBS (Phosphate Buffer Saline) and blocked with 1% (v/v) BSA (Bovine serum albumin; Sigma)-containing PBS at a room temperature for 2 hours. […] After that, an anti-mouse IgG antibody (Sigma) conjugated with HRP diluted in 1% (v/v) BSA-containing PBS at a ratio of 1:5,000 (v/v) was added in an amount of 100 ul to each well to react at a room temperature for 1 hour and then, the plate was washed five times with PBST. Lastly, 100 ul (microliter) of TMB substrate (Cell Signaling) was added to each well of the plate to induce color development for 3 min. and then, the reaction was ceased by the addition of 100 ul of Stop solution (Cell Signaling) and OD450 values were measured on a plate reader (Molecular Devices).

The target of assay [3] is T3, recombinant hAng-2 (C-His, R&D Systems) (human, UniProt O15123 19-496).
T3 construct: Bought protein; also called human Ang-2 protein; C-terminal histidine-tagged human Ang2 (R&D Systems); not shown: C-terminal His tag
T3 sequence: T1 sequence
Description: SPR, BIAcore T100; hAng-2 (C-His) captured by anti-His antibody on CM5, antibody as analyte. Here is the method:
First, anti-His antibody was immobilized on a CM5 sensor chip (GE healthcare) up to 8,000 RU levels using a pH 5.0 acetate solution and an amine coupling kit (GE Healthcare). 6 μg/ml of a recombinant hAng-2 (C-His, R&D Systems) protein was flowed onto the chip to be captured at 100 to 200 RU levels.
Background: In SPR one partner is held on a chip, and binding of the other changes the refractive index at the surface.

Assay [4] addresses T4, BSA (Bos taurus, UniProt P02769).
T4 construct: commercial preparation; also called Bovine serum albumin; Sigma
Description: Complex ELISA: plate coated with BSA, 10D6 2 ug/ml with or without FLAG-Ang2 0.25 ug/ml, anti-mouse IgG-HRP, OD450. Here is the method:
A 96-well MaxiSorp™ flat-bottom plate (Nunc) was coated with 4 μg/ml of Tie2-Fc (R&D systems) or BSA (Sigma). Then, the plate was washed five times with 0.05% (v/v) Tween-20-containing PBS (Phosphate Buffer Saline) and blocked with 1% (v/v) BSA (Bovine serum albumin; Sigma)-containing PBS at a room temperature for 2 hours. 0.25 μg/ml of Ang2 and 2 μg/ml of 10D6 antibody were added to each well of the plate, which was allowed to react at a room temperature for 2 hours and then washed five times with PBST. After that, an anti-mouse IgG antibody (Sigma) conjugated with HRP diluted in 1% (v/v) BSA-containing PBS at a ratio of 1:5,000 (v/v) was added in an amount of 100 ul to each well to react at a room temperature for 1 hour and then, the plate was washed five times with PBST. Lastly, 100 ul (microliter) of TMB substrate (Cell Signaling) was added to each well of the plate to induce color development for 3 min. and then, the reaction was ceased by the addition of 100 ul of Stop solution (Cell Signaling) and OD450 values were measured on a plate reader (Molecular Devices).
A general note: In an ELISA, binding on a coated surface is turned into a signal by an enzyme label.

The target in assay [5] is Ang2 RBD A449 mutant (with alanine), FLAG-tagged (human) (UniProt O15123). Description: ELISA, antibody coated, FLAG-tagged mutant Ang2 RBD detected with anti-FLAG-HRP.
The target in assay [6] is T3, recombinant hAng-2 (C-His, R&D Systems). Description: SPR, BIAcore T100; hAng2 (C-His) captured by anti-His antibody on CM5, antibody as analyte. The procedure:
The binding affinity (KD values) of the antibodies to human Ang2 protein was measured by an SPR method using a BIAcore T100 (GE Healthcare). 25 μg/ml anti-His antibody was immobilized on a CM5 sensor chip (GE healthcare) using a pH 5.0 acetate solution and an amine coupling kit (GE Healthcare). 6 μg/ml of a recombinant hAng2 (C-His, R&D Systems) protein was flowed onto the chip to be captured at 100 to 200 RU levels.

T2 sequence (Q02763 23-745 limits assumed): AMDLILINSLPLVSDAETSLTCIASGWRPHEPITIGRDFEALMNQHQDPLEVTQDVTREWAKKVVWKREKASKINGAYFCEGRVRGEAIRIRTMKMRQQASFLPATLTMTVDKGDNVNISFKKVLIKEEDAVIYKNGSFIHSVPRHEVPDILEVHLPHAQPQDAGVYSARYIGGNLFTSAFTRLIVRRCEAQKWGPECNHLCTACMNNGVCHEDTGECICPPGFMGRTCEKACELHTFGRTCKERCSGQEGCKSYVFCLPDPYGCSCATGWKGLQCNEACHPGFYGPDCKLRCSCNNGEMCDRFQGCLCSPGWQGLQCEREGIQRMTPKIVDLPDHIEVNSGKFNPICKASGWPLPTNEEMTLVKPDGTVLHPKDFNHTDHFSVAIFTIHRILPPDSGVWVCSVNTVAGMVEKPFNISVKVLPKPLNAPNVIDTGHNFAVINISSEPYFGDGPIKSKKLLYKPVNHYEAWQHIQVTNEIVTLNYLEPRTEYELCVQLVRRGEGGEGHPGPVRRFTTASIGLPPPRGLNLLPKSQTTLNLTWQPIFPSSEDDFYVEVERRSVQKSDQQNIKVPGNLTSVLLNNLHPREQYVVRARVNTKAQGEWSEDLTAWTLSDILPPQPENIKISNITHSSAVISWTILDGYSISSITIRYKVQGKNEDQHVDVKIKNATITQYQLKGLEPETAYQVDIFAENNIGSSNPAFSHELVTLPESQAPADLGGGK
T4 sequence (P02769 25-607 limits assumed): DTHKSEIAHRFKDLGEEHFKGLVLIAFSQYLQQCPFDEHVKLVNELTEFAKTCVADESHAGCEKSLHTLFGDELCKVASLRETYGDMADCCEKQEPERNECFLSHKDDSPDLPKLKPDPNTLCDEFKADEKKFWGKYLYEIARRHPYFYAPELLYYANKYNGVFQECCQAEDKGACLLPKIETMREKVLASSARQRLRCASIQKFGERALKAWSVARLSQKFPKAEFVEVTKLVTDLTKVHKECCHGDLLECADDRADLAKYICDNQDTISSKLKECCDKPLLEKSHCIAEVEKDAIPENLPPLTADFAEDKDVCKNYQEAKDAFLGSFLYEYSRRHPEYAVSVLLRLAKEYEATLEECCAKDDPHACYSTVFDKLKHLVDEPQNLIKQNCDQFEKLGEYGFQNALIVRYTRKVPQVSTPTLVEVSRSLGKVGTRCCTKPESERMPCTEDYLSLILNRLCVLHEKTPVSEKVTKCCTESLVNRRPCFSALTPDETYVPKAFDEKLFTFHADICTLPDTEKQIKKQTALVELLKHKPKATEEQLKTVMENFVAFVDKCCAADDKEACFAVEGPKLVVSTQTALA

B1: SAIT-ANG2-AB-m10D6 (antibody, V domains shown)
VH: DVQLQESGPDLVKPSQSLSLTCTVTGYSITSDYAWNWIRQFPGNKLEWMGYINYSGNTDYNPSLKSRSSITRDTSKNQFFLQLNSVTTGDTATYYCARGNFEGAMDYWGQGTSVTVSS
VL: SIVMTQTPKFLLVSAGDRVTITCKASQSVSNDVAWYQQKPGQSPKLLIYYASNRYPGVPDRFTGSGYGTDFTFTISTVQAEDLAVYFCQQDYSSPWTFGGGTKLEIK
notes: Mouse monoclonal antibody purified from a hybridoma (KCLRF-BP-00295); it is not applied here; also called mouse antibody 10D6; 10D6 antibody
Broadly, the Kd is a measure of binding affinity in units of concentration. Usually koff stands for the first-order rate constant of dissociation. What is called kon is the second-order rate constant of association. Consider B1, for which, in assay [1], the “Tie2 phosphorylation effect against control antibody RG” value is approximately 8.6 fold and the “Tie2 phosphorylation level (pTyr/Tie2 ratio, HUVEC, 60 nM antibody)” value stood at 180%. The binding result in assay [2] was “no binding (tested: 2 ug/ml)”. Moreover, the Kd in assay [3] is 8 nM. Also, the binding result in assay [4] is “no binding (tested: 2 ug/ml)”. For the same molecule, the binding affinity (%) with mutant Ang2 against the binding affinity with the native Ang2 in assay [5] was determined as 97.9%. In assay [6], the Kd came out at 8 nM, the koff worked out at 0.000193 s⁻¹ and the kon amounted to 24100 M⁻¹ s⁻¹.
